{"source": "patent US20240010735A1", "about": "(EISAI R AND D MANAGEMENT, published 2024)", "binders": {"B1": {"name": "mouse anti-EphA4 monoclonal antibody (antibody A) (antibody, mouse IgG1, kappa, V domains shown)", "VH": "QVQLKQSGPSLVQPSQSLSITCTVSGFSLTRYGVHWVRQSPGKGLEWLGVIWRGGSTDYNAAFMSRLSITKDNSKSQVFFKMNSLQADDTAIYYCAKESLFGVYYDYGYYSMDYWGQGTSVTVSS", "VL": "DIQMTQSPSSLSASLGERVSLTCRASQEISGYLSWLQQKPDGTIKRLIYAASTLDSGVPKRFSGSRSGSDYSLTISSLESEDFADYYCLQYASYPLTFGAGTKLELKR", "notes": "purified from hybridoma supernatant"}, "B2": {"name": "humanized anti-EphA4 monoclonal antibody (antibody B) (antibody, human IgG2, V domains shown)", "VH": "QVQLVESGGGVVQPGRSLRLSCAVSGFSLTRFGVHWVRQAPGKGLEWVAVIWRGGSTDYNAAFMSRLTISKDNSKNTVYLQMNSLRAEDTAVYYCAKESLFGVYYDYGYYSMDYWGQGTTVTVSS", "VL": "DIQMTQSPSSLSASVGDRVTITCRASQEISGYLSWLQQKPGKAPKRLIYAASTLDSGVPSRFSGSRSGTEYTLTISSLQPEDFATYYCLQYASYPLTFGGGTKVEIKR", "notes": "expressed in Expi293F cells; also called humanized antibody of antibody A; HK2-42 / L1-8"}}, "key": {"[1]": {"molecular_target": "T1, human EphA8 extracellular region-SEAP-His protein (human, UniProt P29322 28-542)", "T1 construct": "extracellular domain; also called Eph receptor extracellular region-SEAP-His protein; not shown: secretory alkaline phosphatase (SEAP); histidine tag", "T1 sequence (looked up)": "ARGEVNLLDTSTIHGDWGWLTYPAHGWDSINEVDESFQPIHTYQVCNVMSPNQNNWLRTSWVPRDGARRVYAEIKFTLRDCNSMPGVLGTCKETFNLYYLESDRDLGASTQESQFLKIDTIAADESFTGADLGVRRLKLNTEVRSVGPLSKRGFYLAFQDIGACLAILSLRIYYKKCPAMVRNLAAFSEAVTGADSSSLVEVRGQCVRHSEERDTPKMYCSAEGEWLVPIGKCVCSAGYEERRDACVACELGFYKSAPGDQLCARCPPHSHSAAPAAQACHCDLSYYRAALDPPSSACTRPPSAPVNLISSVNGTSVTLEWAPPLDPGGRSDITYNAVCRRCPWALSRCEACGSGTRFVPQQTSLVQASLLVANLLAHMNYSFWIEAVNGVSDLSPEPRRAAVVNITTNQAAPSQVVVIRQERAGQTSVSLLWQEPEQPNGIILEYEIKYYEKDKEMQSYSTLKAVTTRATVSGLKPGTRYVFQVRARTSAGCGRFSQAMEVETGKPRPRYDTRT", "assay": "ELISA: SEAP-His proteins (1 nM) captured on anti-6-His antibody, antibody A 10 µg/mL with human IgG 100 µg/mL, HRP anti-mouse IgG, OD450 as % of human EphA4-SEAP-His"}, "[2]": {"molecular_target": "T2, human EphA4 extracellular region-SEAP-His protein (human, UniProt P54764 20-547)", "T2 construct": "also called human EphA4 extracellular region-SEAP-His 10; not shown: secretory alkaline phosphatase (SEAP); histidine tag", "T2 sequence (P54764 20-547)": "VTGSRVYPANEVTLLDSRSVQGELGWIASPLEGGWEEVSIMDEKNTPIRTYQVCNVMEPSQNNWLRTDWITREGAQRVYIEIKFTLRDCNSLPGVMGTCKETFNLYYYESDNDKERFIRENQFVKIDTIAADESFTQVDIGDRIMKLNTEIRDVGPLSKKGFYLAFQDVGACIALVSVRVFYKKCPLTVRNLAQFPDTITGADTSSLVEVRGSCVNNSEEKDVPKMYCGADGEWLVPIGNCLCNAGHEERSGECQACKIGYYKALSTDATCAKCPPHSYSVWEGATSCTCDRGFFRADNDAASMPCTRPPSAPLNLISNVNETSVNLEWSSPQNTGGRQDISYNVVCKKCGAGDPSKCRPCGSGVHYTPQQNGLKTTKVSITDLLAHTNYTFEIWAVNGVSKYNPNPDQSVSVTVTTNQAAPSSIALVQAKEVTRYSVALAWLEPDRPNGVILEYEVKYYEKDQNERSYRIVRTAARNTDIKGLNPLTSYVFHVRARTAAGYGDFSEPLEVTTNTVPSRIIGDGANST", "assay": "SPR (Biacore T200): human EphA4 extracellular region-SEAP-His captured on anti-His antibody, antibody A 1.6-100 nM as analyte, 1:1 fit", "description": "The binding affinity of antibody A against mouse and human EphA4 was determined by surface plasmon resonance (SPR method) employing Biacore T200 (GE Healthcare). First, anti-His antibodies (GE Healthcare, 28-9950-56) were fixed to a sensor chip CM5. Fixation was carried out by amine coupling method employing N-hydroxysuccinimide (NHS) and N-ethyl-N′-(3-dimethylaminopropyl) carbodiimide hydrochloride salt (EDC), and ethanolamine was employed for blocking (the sensor chip and reagents for fixation are all from GE Healthcare). This was diluted with the fixation buffer (10 mM sodium acetate, pH 4.5) to 3.5 μg/mL, and fixed onto the sensor chip according to the protocol accompanying Biacore T200. Mouse or human EphA4 extracellular region-SEAP-His 10 was diluted with the running buffer HBS-EP (GE Healthcare, BR-1001-88), and the solution was sent and captured onto the flow cell for 120 seconds (about 10 RU of captured amount). […] Fitting analysis by 1:1 binding model employing the software accompanying the system, BIA evaluation software, was carried out against the binding reaction curve obtained, and the binding affinity (KD=kd/ka) against mouse and human EphA4 was calculated."}, "[3]": {"molecular_target": "MBP", "assay": "ELISA: human EphA4 domain-MBP-His proteins (10 nM) captured on anti-6-His antibody, antibody B 10 nM, HRP anti-human IgG Fc fragment antibody, OD450-OD650", "description": "Rabbit anti-6-His antibodies (Bethyl Laboratories) were coated onto the wells of a 96-well plate (Nunc). After incubating at 4° C. overnight, the wells were blocked at room temperature for 1 hour by 1% Block Ace (DS Pharma Biomedical). After washing twice with 0.02% Tween 20/PBS (Nacalai Tesque), human EphA4 extracellular region-MBP-His protein, human EphA4 ligand binding domain-MBP-His protein, human EphA4 fibronectin type III domain 1-MBP-His protein, and human EphA4 fibronectin type III domain 2-MBP-His protein (final concentration 10 nM) were seeded into the wells, and incubated at room temperature for 1 hour. After washing 3 times, antibody B (final concentration 10 nM) was supplemented to the wells, and incubated at room temperature for 1 hour. Horseradish peroxidase-labeled rabbit anti-human IgG Fey fragment antibody (Jackson ImmunoResearch Laboratories) was added, and incubated at room temperature for 1 hour. After washing 5 times, TMB (KPL) solution was added to the wells, and upon confirmation of modest coloring, an equal amount of quenching solution (2 N […]) was added to the wells, and absorbance at 450 nm and 650 nm were read by a microplate reader (PerkinElmer)."}}, "data": [{"binder": "B1", "values": [{"measurement": "binding result", "setting": "[1]", "result": "no binding (tested: 10 µg/mL)"}, {"measurement": "koff", "setting": "[2]", "result": 0.000448, "unit": "s⁻¹"}, {"measurement": "kon", "setting": "[2]", "result": 379000, "unit": "M⁻¹ s⁻¹"}]}, {"binder": "B2", "values": [{"measurement": "binding result", "setting": "[3]", "result": "no binding (tested: 10 nM)"}]}]}
